# Source: US20230381229A1
# Residue numbers refer to the chain shown, from its start. In names and notes the source's numbering stands.
# B1: variant PD-L2 IgV-Fc H15Q (Fc fusion)
# chain: LFTVTVPKELYIIEQGSNVTLECNFDTGSHVNLGAITASLQKVENDTSPHRERATLLEEQLPLGKASFHIPQVQVRDEGQYQCIIIYGVAWDYKYLTLKVKA
# B2: variant PD-L2 IgV-Fc H15Q, T47A (Fc fusion)
# chain: B1 chain with T47A
# B3: variant PD-L2 IgV-Fc V89D (Fc fusion)
# chain: B1 chain with Q15H, V89D
# B4: variant PD-L2 IgV-Fc H15Q, V89D (Fc fusion)
# chain: B1 chain with V89D
# B5: variant PD-L2 IgV-Fc E44D (Fc fusion)
# chain: B1 chain with Q15H, E44D
# B6: variant PD-L2 IgV-Fc I13V, H15Q, T47A, Q82R, V89D (SEQ ID NO 725) (Fc fusion)
# chain: B1 chain with I13V, N24D, Q82R, V89D
# B7: variant PD-L2 IgV-Fc H15Q, T47A, Q72H, R76G, I86T (Fc fusion)
# chain: B1 chain with T47A, Q72H, R76G, I86T
# B8: variant PD-L2 IgV-Fc H15Q, N24S, T47A, Q72H, R76G, V89D (Fc fusion)
# chain: B1 chain with N24S, T47A, Q72H, R76G, V89D
# B9: variant PD-L2 IgV-Fc I13V, H15Q, T37A, E44D, S48C, S67L, Q82R, V89D (Fc fusion)
# chain: B1 chain with I13V, T37A, E44D, S48C, S67L, Q82R, V89D
# B10: variant PD-L2 IgV-Fc H15Q, S67L, R76G, I85F (Fc fusion)
# chain: B1 chain with S67L, R76G, I85F
# B11: variant PD-L2 IgV-Fc H15Q, Q82R, V89D (Fc fusion)
# chain: B1 chain with Q82R, V89D
# B12: variant PD-L2 IgV-Fc G28V, Q72H, R76G, I86T (Fc fusion)
# chain: B1 chain with Q15H, G28V, Q72H, R76G, I86T
# B13: variant PD-L2 IgV-Fc I13V, H15Q, T47A, R76G, V89D (Fc fusion)
# chain: B1 chain with I13V, T47A, R76G, V89D
# B14: variant PD-L2 IgV-Fc S67L, I85F (Fc fusion)
# chain: B1 chain with Q15H, S67L, I85F
# B15: variant PD-L2 IgV-Fc I13V, H15Q, R76G, I85F (Fc fusion)
# chain: B1 chain with I13V, R76G, I85F
# B16: variant PD-L2 IgV-Fc H15Q, K65R (Fc fusion)
# chain: B1 chain with K65R
# B17: variant PD-L2 IgV-Fc N24D (Fc fusion)
# chain: B1 chain with Q15H, N24D
# B18: variant PD-L2 IgV-Fc I13V, E44D, Q82R, V89D (Fc fusion)
# chain: B1 chain with I13V, Q15H, E44D, Q82R, V89D
# B19: WT CD80 IgV/IgC-Fc (Fc fusion)
# chain: VIHVTKEVKEVATLSCGHNVSVEELAQTRIYWQKEKKMVLTMMSGDMNIWPEYKNRTIFDITNNLSIVILALRPSDEGTYECVVLKYEKDAFKREHLAEVTLSVKADFPTPSISDFEIPTSNIRRIICSTSGGFPEPHLSWLENGEELNAINTTVSQDPETELYAVSSKLDFNMTTNHSFMCLIKYGHLRVNQTFNWNTTKQEHFPDN
# B20: variant PD-L1 ECD-Fc K57R, S99G, R195G (Fc fusion)
# chain: FTVTVPKDLYVVEYGSNMTIECKFPVEKQLDLAALIVYWEMEDKNIIQFVHGEEDLRVQHSSYRQRARLLKDQLSLGNAALQITDVKLQDAGVYRCMIGYGGADYKRITVKVNAPYNKINQRILVVDPVTSEHELTCQAEGYPKAEVIWTSSDHQVLSGKTTTTNSKREEKLFNVTSTLRINTTTNEIFYCTFRGLDPEENHTAELVIPELPLAHPPNER
# B21: variant PD-L1 ECD-Fc N17D, M97L, S99G (Fc fusion)
# chain: B20 chain with N17D, R57K, M97L, G195R
# B22: variant PD-L1 ECD-Fc I36T, M97L, Q155H, F193S, N201Y (Fc fusion)
# chain: B20 chain with I36T, R57K, M97L, G99S, Q155H, F193S, G195R, N201Y
# B23: variant PD-L1 ECD-Fc K57R, S99G, L124S, K144Q (Fc fusion)
# chain: B20 chain with L124S, K144Q, G195R
# B24: variant PD-L1 ECD-Fc Y10F, M18V, S99G, Q138R, T203A (Fc fusion)
# chain: B20 chain with Y10F, M18V, R57K, Q138R, G195R, T203A
# B25: variant PD-L2 IgV-Fc Q82R, V89D (Fc fusion)
# chain: B1 chain with Q15H, Q82R, V89D
# B26: variant PD-L2 IgV-Fc H15Q, Q72H, V89D (Fc fusion)
# chain: B1 chain with Q72H, V89D
# B27: variant PD-L2 IgV-Fc E44D, V89D, W91R (Fc fusion)
# chain: B1 chain with Q15H, E44D, V89D, W91R
# B28: variant PD-L2 IgV-Fc H15Q, E44D, R76G, I85F (Fc fusion)
# chain: B1 chain with E44D, R76G, I85F
# B29: variant PD-L2 IgV-Fc H15Q, C23S, I86T (Fc fusion)
# chain: B1 chain with C23S, I86T
# B30: variant PD-L2 IgV-Fc S67L, V89D (Fc fusion)
# chain: B1 chain with Q15H, S67L, V89D
# B31: variant PD-L2 IgV-Fc I13V, H15Q, E44V, T47A, Q82R, V89D (Fc fusion)
# chain: B1 chain with I13V, E44V, T47A, Q82R, V89D
# B32: Wild Type PD-L2 IgV (Fc fusion)
# chain: B1 chain with Q15H
# B33: variant PD-L2 IgV-Fc H15Q, Q72H, Q74R, R76G, I86T (Fc fusion)
# chain: B1 chain with Q72H, Q74R, R76G, I86T
# B34: variant PD-L1 ECD-Fc I36S, M41K, M97L, K144Q, R195G, E200K, H202Q, L206F (Fc fusion)
# chain: B20 chain with I36S, M41K, R57K, M97L, G99S, K144Q, E200K, H202Q, L206F
# B35: variant PD-L1 ECD-Fc I36T, I83T, M97L, K144E, P198T (Fc fusion)
# chain: B20 chain with I36T, R57K, I83T, M97L, G99S, K144E, G195R, P198T
# Biological target: PD-1-Fc (Homo sapiens)
# Sequence (chain, as listed by the source limits assumed): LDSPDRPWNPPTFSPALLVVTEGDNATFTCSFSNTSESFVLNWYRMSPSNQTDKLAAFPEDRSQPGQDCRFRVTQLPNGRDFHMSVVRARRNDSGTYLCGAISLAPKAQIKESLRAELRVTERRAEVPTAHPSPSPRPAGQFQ
# Test: ForteBio, PD-1-Fc
row,Binder,Fortebio binding to PD-1-Fc Response Units (Response Units)
1,B1,0.007
2,B2,0.016
3,B3,0.005
4,B4,0.31
5,B5,-0.006
6,B6,1.45
7,B7,0.512
8,B8,0.4
9,B9,1.25
10,B10,0.025
11,B11,1.2
12,B12,0.003
13,B13,1.6
14,B14,-0.005
15,B15,-0.04
16,B16,-0.001
17,B17,-0.039
18,B18,1.28

# Biological target: CD28 (human)
# Test: flow cytometry on HEK293 cells transfected with CD28
row,Binder,MFI at 66.6 nM
1,B19,3070

# Biological target: CD80 expressed on cells (Homo sapiens)
# Test: flow cytometry, cells expressing CD80
Binder,Fold Change Compared to WT PD-L1,MFI at 20 nM
B20,81.8,11000
B21,547,
B22,9.3,1250
B23,105,
B24,3.1,412

# Biological target: PD-1 expressed on cells (human)
# Sequence (chain, as listed by the source): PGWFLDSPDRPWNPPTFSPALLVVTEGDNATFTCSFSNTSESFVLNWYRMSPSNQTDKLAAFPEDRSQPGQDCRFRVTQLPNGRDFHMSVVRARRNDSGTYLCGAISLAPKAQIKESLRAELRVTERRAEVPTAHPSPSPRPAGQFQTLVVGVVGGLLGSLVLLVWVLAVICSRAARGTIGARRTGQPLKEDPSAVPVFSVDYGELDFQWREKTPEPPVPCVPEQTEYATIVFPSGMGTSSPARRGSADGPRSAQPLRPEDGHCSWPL
# Test: flow cytometry, Jurkat/PD-1 cells
Binder,Fold increase over wildtype PD-L2 IgV-Fc,MFI at 50 nM
B1,1.63,16000
B2,2.7,26600
B3,0.34,3360
B4,1.8,17700
B25,,45000
B5,0.3,2930
B26,,12600
B6,6.2,61000
B7,3.26,32100
B27,,614
B10,0.29,2870
B12,0.57,5560
B14,0.05,529
B15,0.48,4740
B28,,2880
B29,,830
B30,,16000
B16,1.37,13500
B31,,61000
B32,,9840
B17,0.14,1410
B33,,4050
B18,4.59,45200

# Biological target: PD-1 expressed on cells (human)
# Test: flow cytometry, cells expressing PD-1
Binder,MFI at 20 nM,Fold Change Compared to WT PD-L1
B34,3500,
B20,,0.8
B21,,3.2
B22,69,0
B23,,0.7
B35,62,
B24,70,0
